Measurements published in patent publication US20180333502A1 (published 2018).
Where a chain is given by its changes, count along the chain named. Names may count otherwise.

Legend:
[1] = biological target: T1, human CD73 on Calu6 cells (human, UniProt P21589 27-549); assay: cell-based or functional assay
T1 sequence (looked up): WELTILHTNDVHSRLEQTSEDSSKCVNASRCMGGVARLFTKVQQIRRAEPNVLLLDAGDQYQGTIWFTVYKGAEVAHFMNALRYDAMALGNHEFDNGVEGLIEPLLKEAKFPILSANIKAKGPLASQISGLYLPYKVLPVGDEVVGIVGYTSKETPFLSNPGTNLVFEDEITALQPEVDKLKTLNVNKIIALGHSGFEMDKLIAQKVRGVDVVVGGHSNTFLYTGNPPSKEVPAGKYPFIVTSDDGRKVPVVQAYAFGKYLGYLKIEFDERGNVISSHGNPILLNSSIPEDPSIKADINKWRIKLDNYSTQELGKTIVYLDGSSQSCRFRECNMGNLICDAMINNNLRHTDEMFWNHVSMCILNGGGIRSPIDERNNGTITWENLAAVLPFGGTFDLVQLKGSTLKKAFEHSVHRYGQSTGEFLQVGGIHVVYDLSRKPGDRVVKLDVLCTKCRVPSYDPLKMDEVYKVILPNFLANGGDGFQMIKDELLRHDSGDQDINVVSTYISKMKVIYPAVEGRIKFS

[2] = biological target: T2, human GITR on cells (activated human T cells; 3A9-hGITR cells) (human, UniProt Q9Y5U5 26-241); assay: cell-based or functional assay
T2 sequence (looked up): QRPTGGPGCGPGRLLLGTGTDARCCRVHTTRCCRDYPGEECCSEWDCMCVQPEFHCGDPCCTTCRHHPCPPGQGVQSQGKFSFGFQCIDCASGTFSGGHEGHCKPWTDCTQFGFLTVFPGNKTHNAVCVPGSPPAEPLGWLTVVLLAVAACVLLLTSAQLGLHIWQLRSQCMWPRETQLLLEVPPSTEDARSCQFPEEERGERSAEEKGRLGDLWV

B1: CD73.4-IgG2.3G1.1f-KH (antibody)
heavy: QVQLVESGGGVVQPGRSLRLSCAASGFTFSNYGMHWVRQAPGKGLEWVAVILYDGSNKYYPDSVKGRFTISRDNSKNTLYLQMNSLRAEDTAVYYCARGGSSWYPDSFDIWGQGTMVTVSSASTKGPSVFPLAPCSRSTSESTAALGCLVKDYFPEPVTVSWNSGALTSGVHTFPAVLQSSGLYSLSSVVTVPSSNFGTQTYTCNVDHKPSNTKVDKTVERKSCVECPPCPAPPVAGPSVFLFPPKPKDTLMISRTPEVTCVVVDVSHEDPEVKFNWYVDGVEVHNAKTKPREEQYNSTYRVVSVLTVLHQDWLNGKEYKCKVSNKALPSSIEKTISKAKGQPREPQVYTLPPSREEMTKNQVSLTCLVKGFYPSDIAVEWESNGQPENNYKTTPPVLDSDGSFFLYSKLTVDKSRWQQGNVFSCSVMHEALHNHYTQKSLSLSPGK
light: not shown
Ymax, CD73 internalization, Calu6 cells, 2 h [1]: 97 % of 100 nM 11F11

B2: CD73.10-IgG2-C219S (antibody)
heavy: QVQLVESGGGVVQPGRSLRLSCAASGFTFSNYGMHWVRQAPGKGLEWVAVIWYDESNKYYPDSVKGRFTISRDNSKNTLYLQMNSLRAEDTAVYYCARGGSSWYPDSFDIWGQGTMVTVSSASTKGPSVFPLAPCSRSTSESTAALGCLVKDYFPEPVTVSWNSGALTSGVHTFPAVLQSSGLYSLSSVVTVPSSNFGTQTYTCNVDHKPSNTKVDKTVERKSCVECPPCPAPPVAGPSVFLFPPKPKDTLMISRTPEVTCVVVDVSHEDPEVQFNWYVDGVEVHNAKTKPREEQFNSTFRVVSVLTVVHQDWLNGKEYKCKVSNKGLPAPIEKTISKTKGQPREPQVYTLPPSREEMTKNQVSLTCLVKGFYPSDIAVEWESNGQPENNYKTTPPMLDSDGSFFLYSKLTVDKSRWQQGNVFSCSVMHEALHNHYTQKSLSLSPG
light: not shown
Ymax, CD73 internalization, Calu6 cells, 2 h [1]: 99 % of 100 nM 11F11

B3: CD73.10-IgG2-C219S-IgG1.1 (antibody)
heavy: B2 heavy with Q274K, F296Y, F300Y, V309L, G327A, A330S, P331S, T339A
light: not shown
Ymax, CD73 internalization, Calu6 cells, 2 h [1]: 99 % of 100 nM 11F11

B4: 11F11 (antibody, human IgG2, kappa, V domains shown)
VH: QVQLVESGGGVVQPGRSLRLSCATSGFTFSNYGMHWVRQAPGKGLEWVAVILYDGSNKYYPDSVKGRFTISRDNSKNTLYLQMNSLRAEDTAVYYCARGGSSWYPDSFDIWGQGTMVTVSS
VL: DIQMTQSPSSLSASVGDRVTITCRASQGISSWLAWYQQKPEKAPKSLIYAASSLQSGVPSRFSGSGSGTDFTLTISSLQPEDFATYYCQQYNSYPLTFGGGTKVEIKR
Ymax, CD73 internalization, Calu6 cells, 2 h [1]: 98 % of 100 nM 11F11

B5: anti-GITR-IgG2 (antibody)
heavy: QVQLVESGGGVVQPGRSLRLSCAASGFTFSSYGMHWVRQAPGKGLEWVAVIWYEGSNKYYADSVKGRFTISRDNSKNTLYLQMNSLRAEDTAVYYCARGGSMVRGDYYYGMDVWGQGTTVTVSSASTKGPSVFPLAPCSRSTSESTAALGCLVKDYFPEPVTVSWNSGALTSGVHTFPAVLQSSGLYSLSSVVTVPSSNFGTQTYTCNVDHKPSNTKVDKTVERKCCVECPPCPAPPVAGPSVFLFPPKPKDTLMISRTPEVTCVVVDVSHEDPEVQFNWYVDGVEVHNAKTKPREEQFNSTFRVVSVLTVVHQDWLNGKEYKCKVSNKGLPAPIEKTISKTKGQPREPQVYTLPPSREEMTKNQVSLTCLVKGFYPSDIAVEWESNGQPENNYKTTPPMLDSDGSFFLYSKLTVDKSRWQQGNVFSCSVMHEALHNHYTQKSLSLSPGK
light: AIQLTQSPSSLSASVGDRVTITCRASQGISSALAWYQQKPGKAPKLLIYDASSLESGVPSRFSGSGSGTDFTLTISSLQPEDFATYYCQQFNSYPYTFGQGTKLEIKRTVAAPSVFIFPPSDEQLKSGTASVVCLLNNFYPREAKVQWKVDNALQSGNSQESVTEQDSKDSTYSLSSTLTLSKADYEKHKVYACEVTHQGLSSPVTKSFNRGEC
Emax (%), phospho-p65 NFkB signaling, CD4+ T cells [2]: 69 % of GITR.6.G2.G1f
Emax (%), phospho-p65 NFkB signaling, CD8+ T cells [2]: 85 % of GITR.6.G2.G1f
